Source: paper doi:10.1101/2022.08.30.505823 (bioRxiv, 2022)

B1: SMAC (natural protein)
chain: AVPIAQKSEPHSLSSEALMRRAVSLVTDSTSTFLSQTTYALIEAITEYTKAVYTLTSLYRQYTSLLGKMNSEEEDEVWQVIIGARAEMTSKHQEYLKLETTWMTAVGLSEMAAEAAYQTGADQASITARNHIQLVKLQVEEVHQLSRKAETKLAEAQIEELRQKTQEEGEERAESEQEAYLRED

Experiments:
[1] = target: BIRC6 (human, wild type, recombinant) (human) (UniProt Q9NR09); experiment: mass photometry; conditions: remark: other sources report otherwise
[2] = target: BIRC6 (human, wild type, recombinant) (human) (UniProt Q9NR09); experiment: cryo-EM structure; conditions: remark: other sources report otherwise
cryo-EM structure = target: the molecule itself; experiment: cryo-EM structure

Row | Molecule | stoichiometry N [1] | stoichiometry N [2] | stoichiometry N (cryo-EM structure)
1 | BIRC6 (human, wild type, recombinant), Q9NR09 1-4857 | 2 | 2 | –
2 | B1 | – | – | 2
